Sequences and labels used below:
B1: PcOxP_DB02_D03 (scFv, V domains shown)
VH: EVQLLESGGGLVQPGGSLRLSCAASGFTQSDFYMEWVRQAPGKGLEWVAASRNKANAYTTEYADSVKGRFTISRDNSKNTLYLQMNSLRAEDTAVYYCARDYYGYSYWYFDVWGQGTLVTVSS
VL: DIVMTQSPDSLAVSLGERATINCTASESLYSSKHKVHYLAWYQQKPGQPPKLLIYGNSNRYIGVPDRFSGSGSGTDFTLTISSLQAEDVAVYYCGQFYSYPLTFGGGTKVEIK
notes: scFv in periplasmic extract
B2: PcOxP_DB02_E09 (scFv, V domains shown)
VH: B1 VH with Q29F, F32Y, N53W, A57D, Y105S
VL: B1 VL with N57A, N59T, I62S, G95A, S99T
notes: scFv in periplasmic extract
B3: PcOxP_DB02_E11 (scFv, V domains shown)
VH: B1 VH with Q29F, F32Q, A57D, T60V, Y105S
VL: DIVMTQSPDSLAVSLGERATINCKSSESLLYSKNNKNYLAWYQQKPGQPPKLLIYGASNRYSGVPDRFSGSGSGTDFTLTISSLQAEDVAVYYCAQFYSYPLTFGGGTKVEIK
notes: scFv in periplasmic extract
B4: PcOxP_DB02_E02 (scFv, V domains shown)
VH: B1 VH with Q29F, F32E, K54S, A55G, A57S, E61A, Y105S
VL: B1 VL with N57A, G95A
notes: scFv in periplasmic extract
B5: PcOxP_DB02_E03 (scFv, V domains shown)
VH: B1 VH with Q29F, F32Y, N53W, A57D, Y105S, Y107Q
VL: B1 VL with V36K, H37N, N57A, N59W, G95A
notes: scFv in periplasmic extract
B6: PcOxP_DB02_E08 (scFv, V domains shown)
VH: B1 VH with Q29F, F32D, S51T, A57D, Y105S, V112S
VL: B1 VL with N57A, G95A
notes: scFv in periplasmic extract
B7: PcOxP_DB01_G05 (human IgG1) (antibody, V domains shown)
VH: B1 VH with Q29F, D31S, F32Y, A57E, Y105S
VL: B1 VL with N57A, G95A, Q96N
B8: PcOxP_DB03_C10 (human IgG1) (antibody, V domains shown)
VH: B1 VH with Q29F, D31S, F32Y, A57E, Y105S
VL: B1 VL with N57A, S58G, G95A
B9: PcOxP_DB03_H08 (human IgG1) (antibody, V domains shown)
VH: B1 VH with F27G, Q29F, A57T, Y105S
VL: DIQMTQSPSSLSASVGDRVTITCTASESLYSSKHKVHYLAWYQQKPGKAPKLLIYGSSNRYIGVPSRFSGSGSGTDFTLTISSLQPEDFATYYCAQFYQYPLTFGGGTKVEIK
B10: PcOxP_DB01_A06 (human IgG1) (antibody, V domains shown)
VH: B1 VH with Q29F, F32Y, A57D, Y105S
VL: B9 VL with S57A, Q96E, Q99S
B11: PcOxP_DB01_G10 (human IgG1) (antibody, V domains shown)
VH: B1 VH with Q29F, A55N, A57D, Y105S
VL: B1 VL with T24K, E27Q, V36K, N57A, I62P, G95A, S99R
B12: PcOxP_DB04_A11 (human IgG1) (antibody, V domains shown)
VH: B1 VH with Q29F, F32Y, A57T, Y105S
VL: B1 VL with L29V, Y30L, V36K, H37N, N57A, N59T, G95A
B13: PcOxP_DB01_F01 (human IgG1) (antibody, V domains shown)
VH: B1 VH with T28P, Q29F, A57D, Y105S, S106P
VL: B1 VL with L29V, H34N, V36K, N57A, G95A, S99T
B14: PcOxP_DB01_G09 (human IgG1) (antibody, V domains shown)
VH: B1 VH with Q29F, F32Y, A57T, Y105S
VL: B9 VL with S57A, R60L, I62S, Q99S
B15: PcOxP_DB01_H01 (human IgG1) (antibody, V domains shown)
VH: B1 VH with Q29F, D31S, F32Y, A57L, Y105S, Y107T
VL: B1 VL with N57A, G95A
B16: PcOxP_DB01_C04 (human IgG1) (antibody, V domains shown)
VH: B1 VH with T28Q, Q29F, A57D, Y105S
VL: B9 VL with S57A, Q99Y
B17: PcOxP_DB04_E05 (human IgG1) (antibody, V domains shown)
VH: B1 VH with F27N, Q29F, A57Y, Y105S
VL: B1 VL with N57A, G95A
B18: PcOxP_DB01_D01 (human IgG1) (antibody, V domains shown)
VH: B1 VH with Q29F, D31S, F32Y, A57D, Y105S
VL: B1 VL with S32P, N57A, G95A, S99I
B19: PcOxP_DB03_B11 (human IgG1) (antibody, V domains shown)
VH: B1 VH with Q29F, M34V, A57T, Y105S
VL: B1 VL with N57A, S58Q
B20: PcOxP_DB01_E05 (human IgG1) (antibody, V domains shown)
VH: B1 VH with Q29F, F32Y, A57D, Y105S
VL: B9 VL with H37N, S57A
B21: PcOxP_DB01_B09 (human IgG1) (antibody, V domains shown)
VH: B1 VH with Q29F, F32Y, A57D, Y105S
VL: B9 VL with S57A, I62T, Q99H
B22: PcOxP_DB01_D11 (human IgG1) (antibody, V domains shown)
VH: B1 VH with Q29F, D31S, F32Y, A57D, Y105S, F110N
VL: B1 VL with H34W, N57A, G95A

Where a chain is given by its changes, count along the chain named.

The target in one assay is BSA (UniProt P02769). Kind of assay: scFv ELISA. A general note: An ELISA detects its analyte on a solid surface through an enzyme-linked reagent.
Chain of BSA (P02769 25-607 limits assumed): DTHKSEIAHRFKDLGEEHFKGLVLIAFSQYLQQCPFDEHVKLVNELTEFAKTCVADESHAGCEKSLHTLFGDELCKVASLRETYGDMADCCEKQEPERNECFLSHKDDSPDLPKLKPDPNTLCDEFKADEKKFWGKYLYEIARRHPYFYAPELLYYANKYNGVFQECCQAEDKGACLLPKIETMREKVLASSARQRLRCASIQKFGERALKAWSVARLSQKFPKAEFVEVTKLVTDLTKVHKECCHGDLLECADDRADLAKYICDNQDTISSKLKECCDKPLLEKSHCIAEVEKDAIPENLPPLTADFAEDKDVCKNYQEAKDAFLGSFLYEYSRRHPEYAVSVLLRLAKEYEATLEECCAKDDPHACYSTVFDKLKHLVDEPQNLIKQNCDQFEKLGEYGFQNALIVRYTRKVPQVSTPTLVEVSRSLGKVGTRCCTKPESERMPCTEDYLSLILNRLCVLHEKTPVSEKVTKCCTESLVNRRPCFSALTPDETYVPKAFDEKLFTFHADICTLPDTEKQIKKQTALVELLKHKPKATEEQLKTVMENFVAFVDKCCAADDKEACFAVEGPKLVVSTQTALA
The molecule B1 displayed an OD450 of 0.08 OD450.
On the same count and under the same terms, the figure for B2 is 0.07 OD450; for B3 it is 0.06 OD450; for B4 it is 0.06 OD450.
Still for that read-out and setting: the figure for B5 is 0.08 OD450.
On the same count and under the same terms, with B6 the figure was 0.07 OD450.

For another assay, the target named is Peptide 1: Biotin-…-[Tyr(PC)]-acid. The assay is described as follows: scFv ELISA.
With B1, the OD450 is 0.42 OD450.
On the same count and under the same terms, with B2 the figure was 0.56 OD450; with B3, 0.23 OD450; with B4, 0.09 OD450.
On the same count and under the same terms, with B5 the figure was 0.39 OD450; with B6, 0.24 OD450.

Another assay concerns the target Peptide 5: Biotin-…-[Tyr(PC)]-acid. Kind of assay: scFv ELISA.
In the case of B1, the OD450 stood at 0.71 OD450.
In the case of B2, the OD450 was determined as 0.74 OD450.
For B3, the OD450 was found to be 0.76 OD450.
B4 had an OD450 of 0.34 OD450.
B5 showed an OD450 of 0.75 OD450.
As for B6, the OD450 is 0.49 OD450.

The target in the next assay is T1, Peptide 4: Biotin-AGGGGSGGGGSGGGGSAAA-Tyr-acid (N-terminal biotin; C-terminal acid; no PC).
T1 construct: control peptide without PC
T1 peptide: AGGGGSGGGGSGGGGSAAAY
The assay is described as follows: scFv ELISA. Summed up: (§1)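 Bound scFv was read as OD450 after HRP–anti-V5 detection, TMB development and HCl stop. PPE with BSA was incubated 1 h at RT on BSA-blocked wells coated overnight at 4° C. with peptide, or on streptavidin wells loaded 1 h with biotinylated PC-peptides at 1 μg/mL.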
For the molecule B1, the OD450 worked out at 0.04 OD450.
Same read-out and setting: the figure for B2 is 0.04 OD450; for B3 it is 0.04 OD450; for B4 it is 0.04 OD450.
Same read-out and setting: with B5 the figure was 0.04 OD450.
In turn, B6 showed an OD450 of 0.04 OD450.

In another assay the target is T2, Peptide 8: Biotin-AEAAAKEAAAKEAAAKEAAAKAAA-Tyr-acid (N-terminal biotin; C-terminal acid; no PC).
T2 construct: control peptide without PC
T2 peptide: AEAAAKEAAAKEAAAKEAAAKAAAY
Kind of assay: scFv ELISA. Put shortly: as §1
In turn, B1 displayed an OD450 of 0.04 OD450.
Same read-out and setting: with B2 the figure was 0.04 OD450; with B3, 0.04 OD450.
For B4, the OD450 came to 0.05 OD450.
Same read-out and setting: the figure for B5 is 0.05 OD450; for B6 it is 0.04 OD450.

In the next assay the target is PC-BSA. Kind of assay: ELISA (DELFIA TRF), PC-BSA coated, titrated IgG1.
Chain of PC-BSA (P02769 25-607 limits assumed, form in doubt): as the sequence (P02769 25-607 limits assumed) above
In general, EC50 refers to the concentration at which the effect is half-maximal. The low end stands for greater potency, the high end for weaker potency. On to E06 parental IgG1 (antibody), for which the EC50 came to 390 pM.
Same read-out and setting: the figure for B7 is 263 pM; for B8 it is 285 pM.
Still for that read-out and setting: the figure for B9 is 445 pM; for B10 it is 430 pM.
Turning to B11, the EC50 came out at 407 pM.
On the same count and under the same terms, the figure for B12 is 413 pM; for B13 it is 672 pM; for B14 it is 308 pM.
On the same count and under the same terms, with B15 the figure was 275 pM; with B16, 310 pM.
Molecule B17 gave an EC50 of 282 pM.
Still for that read-out and setting: the figure for B18 is 274 pM.
Regarding B19, the EC50 amounted to 299 pM.
On the same count and under the same terms, the figure for B20 is 417 pM; for B21 it is 317 pM; for B22 it is 242 pM.

(Values after patent US20250320312A1 (OXITOPE PHARMA B V, published 2025).)
